Source: US20250332297A1, “DLL3-SPECIFIC BINDING CONSTRUCTS AND THEIR USE IN RADIOTHERAPY” (MOLECULAR PARTNERS AG, priority 2024, published 2025)

B1: MAM279 conjugate: SEQ ID NO: 15 conjugated to DOTAM-maleimide, labelled with Pb-212 (natural lead in PK studies) (conjugate)
chain: GSDLGKKLLEAARAGQDDEVRELLKAGADVNAKDYFSHTPLHLAARNGHLKIVEVLLKAGADVNAKDFAGKTPLHLAADAGHLEIVEVLLKAGADVNAQDIFGKTPADIAADAGHEDIAEVLQKAAGSPTPTPTTPTPTPTTPTPTPTGSDLGKKLLAAAAQGQDDEVRELLKAGANVNAKDLFGYTPLHLAAWRGHLEIVEVLLKAGADVNAKDAAGETPLHLAAWFGHLEIVEVLLKAGADVNAQDLQGKTPADLAAKEGHEDIAEVLQKAAGSGSC
modifications: DOTAM-maleimide, Pb-212 label; Ankyrin repeat protein with tag (GS-MAM279-tag)
B2: MAM160: Two domain (2D) ankyrin repeat protein: serum albumin-specific domain (SEQ ID NO: 7), PT linker, DLL3-specific domain MAM120 (protein)
chain: DLGKKLLEAARAGQDDEVRELLKAGADVNAKDYFSHTPLHLAARNGHLKIVEVLLKAGADVNAKDFAGKTPLHLAADAGHLEIVEVLLKAGADVNAQDIFGKTPADIAADAGHEDIAEVLQKAAGSPTPTPTTPTPTPTTPTPTPTGSDLGTKLLSAAADGQDDEVRELLQAGADVNAKDLFGYTPLHLAAWRGHLEIVEVLLEAGADVNAKDAAGLTPLHLAAWFGHLEIVEVLLEAGADVNAQDVQGVTPADLAAKEGHEDIAEVLQQAA
modifications: Ankyrin repeat protein (MAM160)
B3: MAM282: Two domain (2D) ankyrin repeat protein: serum albumin-specific domain (SEQ ID NO: 7), PT linker, DLL3-specific domain (SEQ ID NO: 2) (protein)
chain: DLGKKLLEAARAGQDDEVRELLKAGADVNAKDYFSHTPLHLAARNGHLKIVEVLLKAGADVNAKDFAGKTPLHLAADAGHLEIVEVLLKAGADVNAQDIFGKTPADIAADAGHEDIAEVLQKAAGSPTPTPTTPTPTPTTPTPTPTGSDLGKKLLAAAREGQDDEVRELLKAGADVNAKDIWGQTPLHIAAWFGHLEIVEVLLKAGADVNAKDQTGHTPLHLAAKFGHLEIVEVLLKAGADVNAQDLLGRTPADLAAEEGHEDIAEVLQKAA
modifications: Ankyrin repeat protein (MAM282)
B4: MAM279: Two domain (2D) ankyrin repeat protein: serum albumin-specific domain (SEQ ID NO: 7), PT linker, DLL3-specific domain of MAM093 (protein)
chain: DLGKKLLEAARAGQDDEVRELLKAGADVNAKDYFSHTPLHLAARNGHLKIVEVLLKAGADVNAKDFAGKTPLHLAADAGHLEIVEVLLKAGADVNAQDIFGKTPADIAADAGHEDIAEVLQKAAGSPTPTPTTPTPTPTTPTPTPTGSDLGKKLLAAAAQGQDDEVRELLKAGANVNAKDLFGYTPLHLAAWRGHLEIVEVLLKAGADVNAKDAAGETPLHLAAWFGHLEIVEVLLKAGADVNAQDLQGKTPADLAAKEGHEDIAEVLQKAA
modifications: Ankyrin repeat protein (MAM279)
B5: MAM283: Two domain (2D) ankyrin repeat protein: serum albumin-specific domain (SEQ ID NO: 7), PT linker, DLL3-specific domain (SEQ ID NO: 3) (protein)
chain: DLGKKLLEAARAGQDDEVRELLKAGADVNAKDYFSHTPLHLAARNGHLKIVEVLLKAGADVNAKDFAGKTPLHLAADAGHLEIVEVLLKAGADVNAQDIFGKTPADIAADAGHEDIAEVLQKAAGSPTPTPTTPTPTPTTPTPTPTGSDLGKKLLAAAADGQDDEVRELLQAGADVNAKDLFGYTPLHLAAWRGHLEIVEVLLEAGADVNAKDAAGETPLHLAAWFGHLEIVEVLLEAGADVNAQDVQGKTPADLAAKEGHEDIAEVLQQAA
modifications: Ankyrin repeat protein (MAM283)

What was measured:
NCI-H82 tumor model = test: Biodistribution of radio-labelled DARPin conjugates in NCI-H82 tumor model; details: for T:K ratio: R2G2 mice; for Blood % ID/g / Kidneys % ID/g / Tumors % ID/g: mouse, in vivo, iv, 0.01 mg/kg
Procedure: NCI-H82 tumor model. R2G2 mice were purchased from Envigo. All studies were conducted under the approval of the institutional IACUC committee. Animals were maintained under specific-pathogen-free (SPF) conditions with daily cycles of light and darkness (12 h/12 h), in line with ethical guidelines. No manipulations were performed during the first 5 days after arrival, to allow the animals to acclimatize to the new environment. All mice were monitored daily for assessment of physical condition and general well-being. NCI-H82 cells were purchased from ATCC (Catalog No. HTB-175). Solid xenografts were established by subcutaneous (SQ) injection of NCI-H82 cells in RPMI media mixed 1:1 with Corning® Matrigel® basement membrane matrix (GFR; Corning, Cat No 354230.). Cells were quantified using Countess cell counter. Each mouse was injected SQ with 5×10^6 NCI-H82 cells in 100 μL RPMI/GFR-Matrigel into the right flank of each mouse. Tumor volumes were estimated three times per week through calipering, according to the formula: volume=0.5×length×width^2 and grown until they reached 200-300 mm^3. Tumor-associated antigen level expressed in tumors, tumor vascularization profile and DLL3 soluble form in mouse serum was tested.
Biodistribution study. […] Radio-labeled (Pb-212) DARPin conjugates were then injected at 0.01 mg/kg (10 μCi DARPin conjugates) into the tail vein of R2G2 mice (females) xenografted subcutaneously (at age of about 7 weeks) with NCI-H82 cells (5 million cells, growth factor reduced Matrigel) and bearing tumors (5-10 mm in diameter). […] Biodistribution was monitored at 4 h and 24h post-injection. Mice were euthanized by CO2 inhalation and cervical dislocation. Blood, spleen, kidneys, liver and tumor were extracted, weighed and the radioactivity was determined with a γ-counter counter (such as Wizard^22470, Perkin Elmer). The data were expressed as the % injected dose/gram (% ID/g).
Radio-labeled (Pb-212) DARPin conjugates were then injected at 0.01 mg/kg (10 μCi DARPin conjugates) into the tail vein of R2G2 mice (females) xenografted subcutaneously (at age of about 7 weeks) with NCI-H82 cells (5 million cells, growth factor reduced Matrigel) and bearing tumors (5-10 mm in diameter). Biodistribution was monitored at 4 h and 24h post-injection. Mice were euthanized by CO2 inhalation and cervical dislocation. Kidneys and tumor were extracted, weighed and the radioactivity was determined with a γ-counter counter (such as Wizard^22470, Perkin Elmer). The data were expressed as the % injected dose/gram (% ID/g) and the tumor to kidney (T:K) ratio was determined.
Radio-labelled (Pb-212) DARPin conjugates were then injected at 0.01 mg/kg (10 μCi DARPin conjugates) (i) into the tail vein of R2G2 mice (females) xenografted subcutaneously (at age of about 7 weeks) with NCI-H82 cells (5 million cells, growth factor reduced Matrigel) and bearing tumors (5-10 mm in diameter), and (ii) into the tail vein of athymic nude mice (females) xenografted subcutaneously (at age of about 7 weeks) with hDLL3-MC38 cells (5 million cells, growth factor reduced Matrigel) and bearing tumors (5-10 mm in diameter). Biodistribution was monitored at 4 h and 24h post-injection. Mice were euthanized by CO2 inhalation and cervical dislocation. Blood, bladder, small intestine, colon, spleen, kidneys, liver, lung, heart, tail and tumor were extracted, weighed and the radioactivity was determined with a γ-counter (such as Wizard^22470, Perkin Elmer). The data were expressed as the % injected dose/gram (% ID/g).

human DLL3 = target: T1, human DLL3 (Homo sapiens, UniProt Q9NYJ7); test: SPR multi-trace analysis, binding to human DLL3 (Example 1); details: immobilized bio-DLL3 (hDLL3 ECD), PBS pH 7.4, 1:1 Langmuir, Table 1
T1 construct: (Q9NYJ7, Gene ID: 10683, residues 27 to 466; purchased from Evitria); 3C protease recognition site (C); Fc knob into hole (C); purchased Evitria
T1 sequence (Q9NYJ7 27-466): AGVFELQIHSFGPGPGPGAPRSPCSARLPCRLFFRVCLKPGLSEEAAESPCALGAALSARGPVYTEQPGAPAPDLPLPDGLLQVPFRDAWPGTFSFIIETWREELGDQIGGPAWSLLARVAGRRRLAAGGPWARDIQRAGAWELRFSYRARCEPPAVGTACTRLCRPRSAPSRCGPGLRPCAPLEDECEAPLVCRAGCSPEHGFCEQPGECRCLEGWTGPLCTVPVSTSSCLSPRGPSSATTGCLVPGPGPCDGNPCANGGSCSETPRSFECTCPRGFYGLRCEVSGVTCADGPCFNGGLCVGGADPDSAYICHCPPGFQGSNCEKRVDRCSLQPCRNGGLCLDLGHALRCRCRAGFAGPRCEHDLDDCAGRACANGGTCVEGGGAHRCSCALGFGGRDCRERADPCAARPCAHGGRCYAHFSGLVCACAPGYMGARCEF
Procedure: Kinetic binding parameters and binding affinities of two domain (2D) ankyrin repeat proteins comprising an ankyrin repeat domain with binding specificity for DLL3 and an ankyrin repeat domain with binding specificity for serum albumin were determined by surface plasmon resonance (SPR) multi-trace analysis.
In brief, a SPR assay was used to determine the binding kinetics to the target human DLL3. The data were generated using BioRad ProteOn instrument in SPR running buffer (PBS, pH 7.4 containing 0.005% Tween 20®). […] The chip was coated with biotinylated target (bio-DLL3) to reach a signal intensity of 1780 RU. All analytes (3-fold dilution ranging from 300-33.3 nM) were injected in succession for 240 s (100 μl/min) and dissociation was recorded for 10800 s (100 μl/min). Each injection was followed by a regeneration step with 16 mM H3PO4 for 18 s. […] The bio-DLL3 target used was as described in U.S. 63/550,951, i.e. the extracellular domain (ECD) of human DLL3 protein (Q9NYJ7, Gene ID: 10683, residues 27 to 466; purchased from Evitria) linked via an Avi-tag (for site-directed biotinylation), followed by a 3C protease recognition site, to a Fc knob into hole (hDLL3 ECD-Avi-Fckih).

| Molecule | T:K ratio (NCI-H82 tumor model; Pb-212 DOTAM conjugate 0.01 mg/kg (10 μCi) i.v., s.c. NCI-H82, 24 h, Example 9) | T:K ratio (NCI-H82 tumor model; Pb-212 conjugate, NCI-H82 cells xenografted intravenously instead of subcutaneously, 24 h (data not shown)) | Blood % ID/g (NCI-H82 tumor model; 4 h) | Kidneys % ID/g (NCI-H82 tumor model; 4 h) | Tumors % ID/g (NCI-H82 tumor model; 4 h) | Blood % ID/g (NCI-H82 tumor model; 24 h) | Kidneys % ID/g (NCI-H82 tumor model; 24 h) | Tumors % ID/g (NCI-H82 tumor model; 24 h) | Kd (human DLL3) | koff (human DLL3) | kon (human DLL3) |
| --- | --- | --- | --- | --- | --- | --- | --- | --- | --- | --- | --- |
| B1 | above 1 | above 1 |  |  |  |  |  |  |  |  |  |
| B2 |  |  | 13.8 % ID/g | 12.4 % ID/g | 7.1 % ID/g | 3.2 % ID/g | 18.7 % ID/g | 13.3 % ID/g | 1.99 nM | 2.01e-05 s⁻¹ | 10100 M⁻¹ s⁻¹ |
| B3 |  |  |  |  |  |  |  |  | 3.03 nM | 3.79e-05 s⁻¹ | 12500 M⁻¹ s⁻¹ |
| B4 |  |  | 23 % ID/g | 11 % ID/g | 8 % ID/g | 13 % ID/g | 25 % ID/g | 29 % ID/g | 0.616 nM | 1.44e-05 s⁻¹ | 23300 M⁻¹ s⁻¹ |
| B5 |  |  |  |  |  |  |  |  | 0.953 nM | 1.79e-05 s⁻¹ | 18800 M⁻¹ s⁻¹ |
